The target in experiment [1] is Act88F^M305L Drosophila indirect flight muscle (IFM) actin, filamentous (F-Act88F^M305L) (Drosophila melanogaster).
The target in experiment [2] is Act88F^WT Drosophila indirect flight muscle (IFM) actin, filamentous (F-Act88F^WT) (Drosophila melanogaster) (UniProt P83967).

Consider 2 substances from article PMC7229152.

Chain of rabbit psoas myosin (Q28641 whole entry, looked up): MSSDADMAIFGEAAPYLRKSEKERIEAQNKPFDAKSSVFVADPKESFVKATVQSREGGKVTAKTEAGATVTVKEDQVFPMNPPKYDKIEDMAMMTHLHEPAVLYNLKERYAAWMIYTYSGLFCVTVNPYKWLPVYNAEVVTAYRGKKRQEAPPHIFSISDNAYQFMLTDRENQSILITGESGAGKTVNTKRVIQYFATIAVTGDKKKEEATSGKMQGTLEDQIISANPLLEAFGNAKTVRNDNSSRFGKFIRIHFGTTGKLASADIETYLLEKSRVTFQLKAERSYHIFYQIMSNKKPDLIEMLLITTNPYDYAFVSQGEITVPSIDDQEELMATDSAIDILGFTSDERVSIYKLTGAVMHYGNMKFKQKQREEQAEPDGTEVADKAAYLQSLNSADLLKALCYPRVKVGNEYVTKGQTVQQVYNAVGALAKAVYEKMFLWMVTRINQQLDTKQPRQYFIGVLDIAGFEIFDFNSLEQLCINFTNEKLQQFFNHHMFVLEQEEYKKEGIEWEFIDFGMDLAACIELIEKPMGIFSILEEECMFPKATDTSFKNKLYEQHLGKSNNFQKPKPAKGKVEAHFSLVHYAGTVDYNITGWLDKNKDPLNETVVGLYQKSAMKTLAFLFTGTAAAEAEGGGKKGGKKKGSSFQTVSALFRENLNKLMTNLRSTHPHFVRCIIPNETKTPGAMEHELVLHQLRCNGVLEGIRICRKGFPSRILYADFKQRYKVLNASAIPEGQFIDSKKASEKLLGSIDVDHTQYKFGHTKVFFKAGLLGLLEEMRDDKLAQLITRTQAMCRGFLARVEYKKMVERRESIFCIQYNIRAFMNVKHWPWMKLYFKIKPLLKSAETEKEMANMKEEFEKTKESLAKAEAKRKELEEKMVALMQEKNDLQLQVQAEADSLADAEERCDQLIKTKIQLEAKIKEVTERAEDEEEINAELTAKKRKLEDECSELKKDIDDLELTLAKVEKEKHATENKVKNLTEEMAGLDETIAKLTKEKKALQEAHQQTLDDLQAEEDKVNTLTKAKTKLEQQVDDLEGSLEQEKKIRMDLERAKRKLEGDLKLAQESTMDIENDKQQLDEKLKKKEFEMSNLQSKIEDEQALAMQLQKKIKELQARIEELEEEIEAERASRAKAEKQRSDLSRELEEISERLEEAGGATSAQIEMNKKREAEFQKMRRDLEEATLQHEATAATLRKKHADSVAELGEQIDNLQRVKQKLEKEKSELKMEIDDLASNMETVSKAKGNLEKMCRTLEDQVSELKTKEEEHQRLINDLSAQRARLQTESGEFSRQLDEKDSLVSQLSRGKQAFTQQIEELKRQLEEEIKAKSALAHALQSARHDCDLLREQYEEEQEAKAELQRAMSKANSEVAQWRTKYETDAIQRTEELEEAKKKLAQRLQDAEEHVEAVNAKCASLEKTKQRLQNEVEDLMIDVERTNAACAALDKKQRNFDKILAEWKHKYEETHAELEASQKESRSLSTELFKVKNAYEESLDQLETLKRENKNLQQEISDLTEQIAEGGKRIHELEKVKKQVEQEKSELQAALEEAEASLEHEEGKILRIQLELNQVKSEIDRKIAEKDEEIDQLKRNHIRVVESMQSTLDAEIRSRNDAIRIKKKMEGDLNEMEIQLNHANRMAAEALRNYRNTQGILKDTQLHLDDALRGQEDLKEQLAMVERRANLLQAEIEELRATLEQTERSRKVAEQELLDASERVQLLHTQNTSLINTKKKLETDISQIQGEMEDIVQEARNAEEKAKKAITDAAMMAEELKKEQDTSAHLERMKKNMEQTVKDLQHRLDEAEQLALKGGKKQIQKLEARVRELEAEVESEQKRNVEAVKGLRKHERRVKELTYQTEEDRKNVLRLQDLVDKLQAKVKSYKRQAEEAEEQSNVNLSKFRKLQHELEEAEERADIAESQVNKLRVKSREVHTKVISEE
Chain of porcine cardiac tropomyosin (Tpm) (P42639 whole entry): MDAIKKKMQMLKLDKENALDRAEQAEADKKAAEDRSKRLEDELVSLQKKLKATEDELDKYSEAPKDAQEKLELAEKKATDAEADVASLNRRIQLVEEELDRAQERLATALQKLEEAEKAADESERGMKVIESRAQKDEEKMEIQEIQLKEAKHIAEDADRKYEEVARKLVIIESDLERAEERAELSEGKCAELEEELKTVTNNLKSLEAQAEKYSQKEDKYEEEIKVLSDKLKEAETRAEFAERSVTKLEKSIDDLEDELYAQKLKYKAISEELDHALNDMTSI

On to “porcine cardiac tropomyosin (Tpm) (from UniProt P42639 1-284) (natural protein)”, for which the Filaments moving (%) in in vitro motility at 30 °C with 300 nM Tpm, rabbit psoas myosin 12.5 to 100 µg ml^-1 (21.17 to 71.16 %) in experiment [1] was 71.2%. In experiment [2], this substance yielded a Filaments moving (%) in in vitro motility at 30 °C with 300 nM Tpm, rabbit psoas myosin 12.5 to 100 µg ml^-1 (14.96 to 62.87 %) of 62.9%.

“rabbit psoas myosin (from UniProt Q28641 1-1938) (complex)” showed a Filaments moving (%) in in vitro motility at 30 °C without Tpm, rabbit psoas myosin 12.5 to 100 µg ml^-1 (32.57 to 68.00 %) in experiment [1] of 68%. The Filaments moving (%) in in vitro motility at 30 °C without Tpm, rabbit psoas myosin 12.5 to 100 µg ml^-1 (31.02 to 68.11 %) in experiment [2] was determined as 68.1%.
